Experimental data: the Immune Epitope Database (IEDB)

Assays:
HLA-A*02:03 = assay: IEDB peptide-MHC binding, purified MHC/direct/fluorescence; filed as Kd, often an IC50 or EC50 that approximates it; ≥ and ≤ were set here for values at or beyond the usual limits of such assays
HLA-A*02:11 = assay: as above
HLA-A*02:12 = assay: as above
HLA-A*02:16 [1] = assay: as above; conditions: source organism: Zaire ebolavirus
HLA-A*02:19 [2] = assay: as above
HLA-A*23:01 = assay: as above
HLA-A*24:03 = assay: as above
HLA-A*29:02 = assay: as above
HLA-A*68:02 = assay: as above
HLA-B*27:05 = assay: as above; conditions: source organism: Ebola virus - Gabon (1994-1997)
HLA-A*02:01 = assay: IEDB peptide-MHC binding, purified MHC/competitive/fluorescence; filed as Kd, often an IC50 or EC50 that approximates it; ≥ and ≤ were set here for values at or beyond the usual limits of such assays
HLA-A*26:01 = assay: as above
HLA-A*69:01 = assay: as above
HLA-B*15:01 = assay: as above
HLA-B*15:17 = assay: as above
HLA-B*18:01 = assay: as above
HLA-B*39:01 = assay: as above
HLA-B*46:01 = assay: as above
HLA-B*51:01 = assay: as above
HLA-B*57:01 = assay: as above
HLA-A*01:01 = assay: IEDB peptide-MHC binding, purified MHC/direct/fluorescence; filed as Kd, often an IC50 or EC50 that approximates it; ≥ and ≤ were set here for values at or beyond the usual limits of such assays; conditions: source organism: Reston ebolavirus - Reston
HLA-A*03:01 [3] = assay: as above
HLA-B*27:03 = assay: IEDB peptide-MHC binding, purified MHC/competitive/fluorescence; filed as Kd, often an IC50 or EC50 that approximates it; ≥ and ≤ were set here for values at or beyond the usual limits of such assays
HLA-B*15:02 = assay: as above
HLA-A*11:01 = assay: IEDB peptide-MHC binding, purified MHC/direct/fluorescence; filed as Kd, often an IC50 or EC50 that approximates it; ≥ and ≤ were set here for values at or beyond the usual limits of such assays; conditions: source organism: Entamoeba histolytica
HLA-A*31:01 = assay: IEDB peptide-MHC binding, purified MHC/competitive/fluorescence; filed as Kd, often an IC50 or EC50 that approximates it; ≥ and ≤ were set here for values at or beyond the usual limits of such assays; conditions: source organism: Entamoeba histolytica
HLA-A*32:07 = assay: as above; conditions: source organism: Entamoeba histolytica
HLA-B*15:42 = assay: as above; conditions: source organism: Entamoeba histolytica
HLA-B*45:06 = assay: as above; conditions: source organism: Entamoeba histolytica
HLA-B*83:01 = assay: as above; conditions: source organism: Entamoeba histolytica
HLA-A*03:01 [4] = assay: as above; conditions: source organism: Zaire ebolavirus
HLA-C*15:02 = assay: IEDB peptide-MHC binding, purified MHC/direct/fluorescence; filed as Kd, often an IC50 or EC50 that approximates it; ≥ and ≤ were set here for values at or beyond the usual limits of such assays; conditions: source organism: Human immunodeficiency virus type 1 (Z-84 ISOLATE)
HLA-A*02:16 [5] = assay: IEDB peptide-MHC binding, purified MHC/competitive/fluorescence; filed as Kd, often an IC50 or EC50 that approximates it; ≥ and ≤ were set here for values at or beyond the usual limits of such assays; conditions: source organism: Human immunodeficiency virus type 1 (Z-84 ISOLATE)
HLA-A*02:19 [6] = assay: as above; conditions: source organism: Human immunodeficiency virus type 1 (Z-84 ISOLATE)
[7] = source organism: Zaire ebolavirus
[8] = source organism: Reston ebolavirus
[9] = source organism: Vibrio vulnificus CMCP6
[10] = source organism: Human immunodeficiency virus type 1 (Z-84 ISOLATE)

Measured: Kd

GRYNLISPK
≥ 20 µM: HLA-A*02:03; [7] | HLA-A*02:11; [7] | HLA-A*02:12; [7] | HLA-A*02:16 [1] | HLA-A*02:19 [2]; [7] | HLA-A*23:01; [7] | HLA-A*24:03; [7] | HLA-A*29:02; [7] | HLA-A*68:02; [7] | HLA-A*02:01; [7] | HLA-A*26:01; [7] | HLA-A*69:01; [7] | HLA-B*15:01; [7] | HLA-B*15:17; [7] | HLA-B*18:01; [7] | HLA-B*39:01; [7] | HLA-B*46:01; [7] | HLA-B*51:01; [7] | HLA-B*57:01; [7]
0.0746 µM: HLA-B*27:05

ITDEINQIK
≥ 20 µM: HLA-A*01:01 | HLA-A*02:03; [8] | HLA-A*02:11; [8] | HLA-A*02:12; [8] | HLA-A*02:19 [2]; [8] | HLA-A*03:01 [3]; [8] | HLA-A*23:01; [8] | HLA-A*24:03; [8] | HLA-A*29:02; [8] | HLA-A*68:02; [8] | HLA-A*02:01; [8] | HLA-A*26:01; [8] | HLA-A*69:01; [8] | HLA-B*15:01; [8] | HLA-B*15:17; [8] | HLA-B*18:01; [8] | HLA-B*27:03; [8] | HLA-B*39:01; [8] | HLA-B*46:01; [8] | HLA-B*51:01; [8] | HLA-B*57:01; [8]

NMQESSKSF
0.0643 µM: HLA-B*15:02; source organism: Orientia tsutsugamushi str. Ikeda

NTFAAWLPM
0.193 µM: HLA-B*15:02; source organism: Giardia lamblia ATCC 50803

PYWQGIWDK
0.013 µM: HLA-A*24:03; [9]
0.006 µM: HLA-A*23:01; [9]

RMYWGVNPK
≥ 5 µM: HLA-B*15:42 | HLA-B*45:06 | HLA-B*83:01
0.0014 µM: HLA-A*03:01 [3]; source organism: Entamoeba histolytica
0.0016 µM: HLA-A*11:01
≤ 0.001 µM: HLA-A*31:01
0.0139 µM: HLA-A*32:07

SLLHESTLK
≥ 20 µM: HLA-A*02:03; [7] | HLA-A*02:11; [7] | HLA-A*02:12; [7] | HLA-A*02:16 [1] | HLA-A*02:19 [2]; [7] | HLA-A*23:01; [7] | HLA-A*24:03; [7] | HLA-A*29:02; [7] | HLA-A*68:02; [7] | HLA-A*02:01; [7] | HLA-A*26:01; [7] | HLA-A*69:01; [7] | HLA-B*15:01; [7] | HLA-B*15:17; [7] | HLA-B*18:01; [7] | HLA-B*27:03; [7] | HLA-B*39:01; [7] | HLA-B*46:01; [7] | HLA-B*51:01; [7] | HLA-B*57:01; [7]
0.0241 µM: HLA-A*03:01 [4]

WLRAMPPRM
≥ 20 µM: HLA-B*15:02; source organism: Vibrio vulnificus YJ016

YIKIFIMIV
≥ 20 µM: HLA-C*15:02 | HLA-A*02:01; [10] | HLA-A*02:16 [5] | HLA-A*02:19 [6] | HLA-A*69:01; [10]
